The target in assay [1] is E2 ectodomain of HCV strain 1a116 (hepatitis C virus (genotype 1a, strain 1a116)).
In assay [2] the target is E2 ectodomain of HCV strain 1a142 (hepatitis C virus (genotype 1a, strain 1a142)). Put plainly: ELISA.

The results in this text go back to doi:10.1101/2025.08.04.668577.

B1: HEPC108 IgG (antibody, V domains shown)
VH: QVQLVQSGAEVKKPGSSVKVSCKASGDTFSSSAISWVRQAPGQGLEWMGGSIPIFGATKYAQKFQGRVTITTDKSTSTAYMELSSLRFEDTAVYYCARASIVNISGFVRFRFDSWGQGTLVTVSS
VL: DIQMTQSPSSLSASVGDRVTITCQASQDISNYLNWYQQKPGKAPKLLIYDVSNLEIGVPSRFSGSGSGTEFTLTINSLQPEDLATYFCQHYDDVPPVYTFGQGTSLEIK
In assay [1], B1 displayed an HCVpp neutralization IC50 (1a116 HCVpp, Huh7 cells) of 0.12 µg/mL. This molecule also displayed a fold weaker binding than HEPC74 and AR3C (ELISA) in assay [2] of 1.5 fold.
